The target of data set [1] is T1, BN2/GRP receptors (Homo sapiens, UniProt P30550).
T1 construct: Since IC50 determination was done on whole PC-3 cells; endogenous in cells; host or cells: PC-3 cells (human prostate carcinoma)
Kind of data set: Apparent receptor affinity (IC50), displacement of ^99mTc-BN(7-14) on whole PC-3 cells. The data set is classed as binding. As to the method: Material & Methods: PC-3 cells at confluence were placed in 48-well plates and left to attach overnight. […] After 1 h incubation at 37°C, the cells were twice washed with cold PBS and solubilized by adding 400 μl (2 x) of 1 N NaOH at 37°C. The bound radioactivity was measured in the gamma counter. The experiments were performed in triplicate.

For data set [2] the following is noted: cited from earlier work; for GI uptake: HPLC purified.
Procedure: The biodistribution data, in which 0.002 nmol of ^177Lu-AMBA and ^177Lu-DOTA-8-AOC-BN(7–14) (HPLC purified) was injected per mouse [23], and the data of ^177Lu-DOTA-PESIN (0.2 nmol peptide) [25] were compared with our biodistribution data, in which 0.075 nmol of the ^177Lu-labelled BN analogues were injected. This 0.075 nmol is the nearest possible approximation to the 0.002 nmol without HPLC purification, which is desired in clinics.
In data set [3] the test system is PC-3 xenografts. The settings on record: ref [24]; cited from earlier work. The source says: Comparing our study with the therapy studies with ^177Lu-AMBA [23], ^177Lu-DOTA-PESIN [25] (2 × 28 MBq, 0.2 nmol) and ^177Lu-DOTA-8-AOC-BN(7–14), we found the tumour growth inhibition with our PEGylated BN analogue to be lower than with AMBA (approximately 73% vs. approximately 82%) but higher than with DOTA-PESIN (approximately 73% vs. approximately 45%) and roughly the same as with ^177Lu-DOTA-8-AOC-BN(7–14) (approximately 73% vs. approximately 79%) 3 weeks after the first dose. However, such a comparison is not fully conclusive since these therapy studies differ in tumour size at ...

The conditions of data set [4]: cited from earlier work.
The mark [5] stands for this setting: 1 h p.i., 0.002 nmol per mouse, ref [23].
Setting [6] is: 24 h p.i., 0.002 nmol per mouse, ref [23].

Read-outs that look alike come from different tables or passages of the source.

T1 sequence (P30550 whole entry): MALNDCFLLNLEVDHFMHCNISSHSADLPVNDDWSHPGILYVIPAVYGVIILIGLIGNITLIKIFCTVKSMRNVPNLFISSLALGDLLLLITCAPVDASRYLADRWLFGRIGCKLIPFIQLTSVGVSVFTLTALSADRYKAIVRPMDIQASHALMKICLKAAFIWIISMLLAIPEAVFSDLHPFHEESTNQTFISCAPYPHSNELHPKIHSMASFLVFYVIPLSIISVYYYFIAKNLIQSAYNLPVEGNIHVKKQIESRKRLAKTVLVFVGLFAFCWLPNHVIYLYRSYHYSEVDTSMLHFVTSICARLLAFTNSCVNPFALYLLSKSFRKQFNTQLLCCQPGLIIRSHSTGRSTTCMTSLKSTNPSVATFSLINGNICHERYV

What is called IC50 is the concentration needed to halve the response being measured. For the molecule `CCCC[C@H](NC(=O)[C@H](CC1CCCCC1)NC(=O)[C@H](Cc1c[nH]cn1)NC(=O)CNC(=O)[C@@H](NC(=O)[C@H](C)NC(=O)[C@H](Cc1c[nH]c2ccccc12)NC(=O)[C@H](CCC(N)=O)NC(=O)CCNC(=O)CCNC(=O)CC(CCCCN)NC(=O)CN1CCN(CC(=O)O)CCN(CC(=O)O)CCN(CC(=O)O)CC1)C(C)C)C(N)=O` (stereo partly drawn) [DOTA-Lys-BN, DOTA-β^3hLys-βAla-βAla-Gln^7-Trp^8-Ala^9-Val^10-Gly^11-His^12-Cha^13-Nle^14-NH2], the half-inhibitory concentration (IC50) in data set [1] is 2.03 ± 0.42 nM.
Take “DOTA-8-AOC-BN(7–14)NH2 [^177Lu-DOTA-8-AOC-BN(7–14)]”: in data set [2] (setting [5]), the GI uptake was 9.7 %ID and the tumour uptake is on record as 2.84 ± 1.65 % ID/g. Moreover, the GI uptake in data set [2] (setting [6]) was 1.7 % ID. For the same molecule, in data set [3], the “tumour growth inhibition 3 weeks after the first dose” value is listed as “approximately 79%”.
Regarding “DO3A-CH2CO-8-aminooctanoyl-Gln-Trp-Ala-Val-Gly-His-Leu-Met-NH2 [^177Lu-AMBA]”, the GI uptake in data set [2] (setting [5]) was 11.2 %ID; in data set [2] (setting [6]), 5.8 % ID. In data set [2] (setting [5]), the tumour uptake is 6.35 ± 2.23 % ID/g. Besides, in data set [4] (ref [23]), the “half-life (t1/2) in human plasma” value is 38.8 h.
For “DOTA-15-amino-4,7,10,13-tetraoxapentadecanoic acid-Gln-Trp-Ala-Val-Gly-His-Leu-Met-NH2 [^177Lu-DOTA-PESIN]”, the kidney uptake in data set [2] (1 h p.i., 0.2 nmol peptide, Gelofusine and polyglutamic acid co-administered, ref [25]) is given as 3.8 ± 0.34 %ID/g. In data set [2] (1 h p.i., 0.2 nmol peptide, ref [25]), the tumour uptake was 11.6 ± 1.4 %ID/g. Further, the “half-life (t1/2) in human plasma” value in data set [4] (ref [25]) is 8.4 h.

The values above are taken from PMC3478187, “PEGylation, increasing specific activity and multiple dosing as strategies to improve the risk-benefit profile of targeted radionuclide therapy with ^177Lu-DOTA-bombesin analogues” (EJNMMI Research, 2012).
